From patent US8951758B2, “GH61 glycoside hydrolase protein variants and cofactors that enhance GH61 activity” (Codexis, Inc., priority 2011, dated 2015)

Legend:
[1] = test system: pretreated corn stover (PCS); assay: Supplementation of CF-416 whole cellulase broth with single purified enzymes, saccharification of pretreated corn stover; assay type: biochemical; conditions: 0.4% single enzyme added to 0.5% CF-416 whole cellulase broth base
Method: (§1) In this Example, M. thermophila-produced and purified GH61a, GH61p, GH61f, GH61n, CBH1a, CBH2b, AXE3, FAE, and Xyl3, were used to supplement the activity present in culture broths (i.e., “whole broth cellulase base”) of the M. thermophila strain CF-416 prepared using standard methods known in the art. The broth cellulase base was fixed to 0.5% protein and the single purified enzyme was added at 0.4% (wt added protein/wt glucan) to the saccharification reactions. The whole cellulase broth base and individual enzymes were characterized by standard BCA assays for total protein quantification.
(§2) The saccharification reactions were carried out at 74 g/L glucan load of pretreated wheat straw (PWS) or pretreated corn stover (PCS) at pH 5.0, 55° C. at 950 rpm in the presence of 50 μM copper in high throughput (HTP) 96 deep well plates. Glucose analysis was carried out by the glucose oxidase assay as described above. In each case, the fold improvement was calculated using the formula Fold Improvement=[Total Glucose Production with addition of 0.4% single enzyme to the whole cellulase broth base]/[glucose production from the 0.5% whole cellulase broth base]. In this Table, the fold improvements were ranked from 0 to 3; fold improvements less than 1.2× are indicated by “0,” fold improvements of >1.2 to <1.5 are indicated by “1,” fold improvements of ≧1.5× to <1.7× improvements are indicated by “2,” and fold improvements ≧1.7 are indicated by “3.”

[2] = test system: pretreated wheat straw (PWS); assay: Supplementation of CF-416 whole cellulase broth with single purified enzymes, saccharification of pretreated wheat straw; assay type: biochemical; conditions: 0.4% single enzyme added to 0.5% CF-416 whole cellulase broth base
Method: as §1, §2

[3] = 74 g/L glucan, pH 5.0, 55° C., 50 μM copper

Row | Molecule | improvement over whole cellulase broth on PCS, in words [1] | improvement over whole cellulase broth on PWS, in words [2] | Fold Improvement Over Whole Cellulase Broth Tested on PCS [1, 3] | Fold Improvement Over Whole Cellulase Broth Tested on PWS [2, 3]
1 | EG1b: Wild-type EG1b endoglucanase (SEQ ID NO:110) (protein, listed as Myceliophthora thermophila) MGQKTLQGLVAAAALAASVANAQQPGTFTPEVHPTLPTWKCTTSGGCVQQDTSVVLDWNYRWFHTEDGSKSCITSSGVDRTLCPDEATCAKNCFVEGVNYTSSGVETSGSSLTLRQFFKGSDGAINSVSPRVYLLGGDGNYVVLKLLGQELSFDVDVSSLPCGENAALYLSEMDATGGRNEYNTGGAEYGSGYCDAQCPVQNWNNGTLNTGRVGSCCNEMDILEANSKAEAFTPHPCIGNSCDKSGCGFNAYARGYHNYWAPGGTLDTSRPFTMITRFVTDDGTTSGKLARIERVYVQDGKKVPSAAPGGDVITADGCTSAQPYGGLSGMGDALGRGMVLALSIWNDASGYMNWLDAGSNGPCSDTEGNPSNILANHPDAHVVLSNIRWGDIGSTVDTGDGDNNGGGPNPSSTTTATATTTSSGPAEPTQTHYGQCGGKGWTGPTRCETPYTCKYQNDWYSQCL | did not show any improvement | did not show any improvement | – | –
2 | GH61p: M. thermophila GH61p (SEQ ID NO:70; alternative SEQ ID NO:73) (protein, listed as Myceliophthora thermophila) MKLTSSLAVLAAAGAQAHYTFPRAGTGGSLSGEWEVVRMTENHYSHGPVTDVTSPEMTCYQSGVQGAPQTVQVKAGSQFTFSVDPSIGHPGPLQFYMAKVPSGQTAATFDGTGAVWFKIYQDGPNGLGTDSITWPSAGKTEVSVTIPSCIEDGEYLLRVEHTPLPTAPAAQNRARSSPSPAAYKATDPGILFQLYWPIPTEYINPGPAPVSC | greatest benefit | – | 3 (fold improvements ≧1.7) | 2 (fold improvements of ≧1.5× to <1.7×)
3 | beta-xylosidase: wild-type M. thermophila beta-xylosidase (SEQ ID NO:164) (protein, listed as Myceliophthora thermophila) MFFASLLLGLLAGVSASPGHGRNSTFYNPIFPGFYPDPSCIYVPERDHTFFCASSSFNAFPGIPIHASKDLQNWKLIGHVLNRKEQLPRLAETNRSTSGIWAPTLRFHDDTFWLVTTLVDDDRPQEDASRWDNIIFKAKNPYDPRSWSKAVHFNFTGYDTEPFWDEDGKVYITGAHAWHVGPYIQQAEVDLDTGAVGEWRIIWNGTGGMAPEGPHIYRKDGWYYLLAAEGGTGIDHMVTMARSRKISSPYESNPNNPVLTNANTTSYFQTVGHSDLFHDRHGNWWAVALSTRSGPEYLHYPMGRETVMTAVSWPKDEWPTFTPISGKMSGWPMPPSQKDIRGVGPYVNSPDPEHLTFPRSAPLPAHLTYWRYPNPSSYTPSPPGHPNTLRLTPSRLNLTALNGNYAGADQTFVSRRQQHTLFTYSVTLDYAPRTAGEEAGVTAFLTQNHHLDLGVVLLPRGSATAPSLPGLSSSTTTTSSSSSRPDEEEEREAGEEEEEGGQDLMIPHVRFRGESYVPVPAPVVYPIPRAWRGGKLVLEIRACNSTHFSFRVGPDGRRSERTVVMEASNEAVSWGFTGTLLGIYATSNGGNGTTPAYFSDWRYTPLEQFRD | did not show any improvement | did not show any improvement | – | –
